Measurements published in patent publication US20230416396A1 (Regeneron, published 2023).

Tests used:
human 4-1BB on cells = human 4-1BB on cells (human, UniProt Q07011 24-255); experiment: cell-based or functional assay
[1] = target: T1, human 4-1BB expressed with a C-terminal myc-myc-hexahistidine tag (human, UniProt Q07011 24-186); experiment: SPR Biacore 8k, antibody captured by anti-human Fc, h4-1BB.mmH as analyte, 25 C
T1 construct: also called h4-1BB.mmH; REGN3584; not shown: C-terminal myc-myc-hexahistidine tag
Experimental: Equilibrium dissociation constants (KD values) for human 4-1BB expressed with a C-terminal myc-myc-hexahistidine tag (h4-1BB.mmH, REGN3584) or human 4-1BB expressed with a C-terminal murine Fc tag (h4-1BB.mFc, REGN3585) binding to purified anti-CD38×4-1BB 1+2 antibodies were determined using a real-time surface plasmon resonance biosensor using a Biacore 8k instrument. The CM5 Biacore sensor surface was derivatized by amine coupling with a monoclonal mouse anti-human Fc antibody (REGN2567). All Biacore binding studies were performed in a buffer composed of 0.01M HEPES pH 7.4, 0.15M NaCl, 3 mM EDTA, 0.05% v/v Surfactant P20 (HBS-EP running buffer). […] Antibody-reagent association was monitored for 5 minutes while dissociation in HBS-EP running buffer was monitored for 10 minutes. At the end of each cycle, the anti-CD38×4-1BB 1+2 antibody capture surface was regenerated using a 10 second injection of 20 mM phosphoric acid. All binding kinetics experiments were performed at 25° C.
(§1) Kinetic association (kₐ) and dissociation (kd) rate constants were determined by fitting the real-time sensorgrams to a 1:1 binding model using Cytiva Insight curve fitting software. Binding dissociation equilibrium constants (KD) and dissociative half-lives (t/2) were calculated from the kinetic rate constants as: […]

[2] = target: T2, human 4-1BB expressed with a C-terminal murine Fc tag (human, UniProt Q07011 24-186); experiment: SPR Biacore 4000, h4-1BB.mFc captured by anti-mouse Fc, antibody as analyte, 25 C
T2 construct: also called h4-1BB.mFc; REGN3585; not shown: C-terminal murine Fc tag
Experimental: Equilibrium dissociation constants (KD values) for human 4-1BB expressed with a C-terminal murine Fc tag (h4-1BB.mFc, REGN3585) binding to purified anti-CD38×4-1BB 1+2 antibodies were determined using a real-time surface plasmon resonance biosensor using a Biacore 4000 instrument. […] All Biacore binding studies were performed in a buffer composed of 0.01M HEPES pH 7.4, 0.15M NaCl, 3 mM EDTA, 0.05% v/v Surfactant P20 (HBS-EP running buffer). Different concentrations of CD38×4-1BB 1+2 constructs prepared in HBS-EP running buffer (ranging from 100 to 6.25 nM in 4-fold serial dilutions) were injected over the h4-1BB.mFc (REGN3585) captured surface at a flow rate of 30 μL/minute. Antibody-reagent association was monitored for 5 minutes while dissociation in HBS-EP running buffer was monitored for 10 minutes. At the end of each cycle, the h4-1BB.mFc capture surface was regenerated using a 40 sec injection of 10 mM glycine, pH 1.5. All binding kinetics experiments were performed at 25° C.
as §1

T2 sequence (Q07011 24-186 limits assumed): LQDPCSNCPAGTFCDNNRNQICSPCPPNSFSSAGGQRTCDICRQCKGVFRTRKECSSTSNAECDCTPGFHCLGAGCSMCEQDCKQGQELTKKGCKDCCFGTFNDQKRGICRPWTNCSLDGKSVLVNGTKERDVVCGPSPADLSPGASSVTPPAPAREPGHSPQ
T1 sequence (Q07011 24-186 limits assumed): as above
Sequence of human 4-1BB on cells (Q07011 24-255): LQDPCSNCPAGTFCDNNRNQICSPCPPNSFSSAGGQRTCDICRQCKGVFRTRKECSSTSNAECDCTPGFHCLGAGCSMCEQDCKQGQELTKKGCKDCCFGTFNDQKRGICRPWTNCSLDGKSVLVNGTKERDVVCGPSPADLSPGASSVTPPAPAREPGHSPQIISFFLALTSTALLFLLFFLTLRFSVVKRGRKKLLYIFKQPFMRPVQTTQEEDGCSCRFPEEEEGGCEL

- EC50 of IFNγ release, T cells + NALM-6 + IgG4P (human 4-1BB on cells): 81.5 pM
- 100 nM h4-1BB.mmH Bind (RU) [1]: 86.1 RU
- Kd [1]: 16.5 nM
- koff [1]: 0.00533 s⁻¹
- kon [1]: 324000 M⁻¹ s⁻¹
- t½ [1]: 2.2 min
- 100 nM Ab Bind (RU) [2]: 206 RU
- Kd [2]: 0.56 nM
- koff [2]: 0.000351 s⁻¹
- kon [2]: 626000 M⁻¹ s⁻¹
- t½ [2]: 32.9 min
B1: REGN7647 (bispecific antibody, human IgG4 S228P, kappa)
heavy 1: EVQLVESGGGLVQPGRSLRLSCGASGFTFDDYVMHWVRQIPGKGLEWVAGISWNSGSIGYADSVKGRFTISRDNAKNSLYLQMNSLRAEDTALYFCAKDHIDPYSSSLYYYYGMDVWGQGTTVTVSSASTKGPSVFPLAPCSRSTSESTAALGCLVKDYFPEPVTVSWNSGALTSGVHTFPAVLQSSGLYSLSSVVTVPSSSLGTKTYTCNVDHKPSNTKVDKRVESKYGPPGGGGSGGGGSGGGGSEVQLVESGGGLVQPGRSLRLSCGASGFTFDDYVMHWVRQIPGKGLEWVAGISWNSGSIGYADSVKGRFTISRDNAKNSLYLQMNSLRAEDTALYFCAKDHIDPYSSSLYYYYGMDVWGQGTTVTVSSASTKGPSVFPLAPCSRSTSESTAALGCLVKDYFPEPVTVSWNSGALTSGVHTFPAVLQSSGLYSLSSVVTVPSSSLGTKTYTCNVDHKPSNTKVDKRVESKYGPPCPPCPAPPVAGPSVFLFPPKPKDTLMISRTPEVTCVVVDVSQEDPEVQFNWYVDGVEVHNAKTKPREEQFNSTYRVVSVLTVLHQDWLNGKEYKCKVSNKGLPSSIEKTISKAKGQPREPQVYTLPPSQEEMTKNQVSLTCLVKGFYPSDIAVEWESNGQPENNYKTTPPVLDSDGSFFLYSRLTVDKSRWQEGNVFSCSVMHEALHNRFTQKSLSLSPGK
heavy 2: EVQLVESGGGLVQPGRSLRLSCAASGFTFDDYAMHWVRQAPGKGLEWVSGISWKSDNIGYADSVKGRFTISRDNAKNSLYLQMNSLRAEDTALYYCAKALGGWKFDYYYGMDVWGQGTTVTVSSASTKGPSVFPLAPCSRSTSESTAALGCLVKDYFPEPVTVSWNSGALTSGVHTFPAVLQSSGLYSLSSVVTVPSSSLGTKTYTCNVDHKPSNTKVDKRVESKYGPPCPPCPAPPVAGPSVFLFPPKPKDTLMISRTPEVTCVVVDVSQEDPEVQFNWYVDGVEVHNAKTKPREEQFNSTYRVVSVLTVLHQDWLNGKEYKCKVSNKGLPSSIEKTISKAKGQPREPQVYTLPPSQEEMTKNQVSLTCLVKGFYPSDIAVEWESNGQPENNYKTTPPVLDSDGSFFLYSRLTVDKSRWQEGNVFSCSVMHEALHNHYTQKSLSLSLGK
light: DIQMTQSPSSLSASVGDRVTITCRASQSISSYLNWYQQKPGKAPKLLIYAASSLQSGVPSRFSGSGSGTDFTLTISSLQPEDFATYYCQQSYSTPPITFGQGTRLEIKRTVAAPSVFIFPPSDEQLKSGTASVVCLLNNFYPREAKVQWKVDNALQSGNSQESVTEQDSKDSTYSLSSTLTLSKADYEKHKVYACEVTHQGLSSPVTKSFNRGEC
notes: 1+2 format, hIgG4P-PVA; The linker between the two 4-1BB Fabs is (G4S)3v15; also called CD38x4-1BB (1 + 2), (G4S)3v15; 26812P2 x 35333P2 (IN) + 35333P2 (OUT)
